According to publication PMC5859096:

Legend:
[1] = molecular target: His6-BldC (Streptomyces coelicolor) (UniProt A0A0M7QSG5); assay: fluorescence polarization; details: FP: 25 mM Tris pH 7.5, 150 mM NaCl, 1 nM F-DNA, 25 C, footprinting: 10 mM Tris HCl pH 7.8, 150 mM NaCl, 2 mM DTT, 1 ug poly(dI-dC), 10% glycerol (none for …)
[2] = tested on: T1, His6-BldC (Streptomyces coelicolor), ORF:188ed25c; assay: EMSA; details: FP: 25 mM Tris pH 7.5, 150 mM NaCl, 1 nM F-DNA, 25 C; footprinting: 10 mM Tris HCl pH 7.8, 150 mM NaCl, 2 mM DTT, 1 ug poly(dI-dC), 10% glycerol (none for …)
T1 sequence: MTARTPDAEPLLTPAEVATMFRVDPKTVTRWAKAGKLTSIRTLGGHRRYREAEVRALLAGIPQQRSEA

[3] = tested on: T1, His6-BldC (Streptomyces coelicolor), ORF:188ed25c; assay: DNase I footprinting; details: FP: 25 mM Tris pH 7.5, 150 mM NaCl, 1 nM F-DNA, 25 C; footprinting: 10 mM Tris HCl pH 7.8, 150 mM NaCl, 2 mM DTT, 1 ug poly(dI-dC), 10% glycerol (none for …)
[4] = tested on: T1, His6-BldC (Streptomyces coelicolor), ORF:188ed25c; assay: hydroxyl radical footprinting; details: FP: 25 mM Tris pH 7.5, 150 mM NaCl, 1 nM F-DNA, 25 C; footprinting: 10 mM Tris HCl pH 7.8, 150 mM NaCl, 2 mM DTT, 1 ug poly(dI-dC), 10% glycerol (none for …)
[5] = molecular target: His6-BldC(E16R) (Streptomyces coelicolor) (UniProt A0A0M7QSG5); assay: fluorescence polarization; details: FP: 25 mM Tris pH 7.5, 150 mM NaCl, 1 nM F-DNA, 25 C; footprinting: 10 mM Tris HCl pH 7.8, 150 mM NaCl, 2 mM DTT, 1 ug poly(dI-dC), 10% glycerol (none for …)
[6] = molecular target: His6-SeMet BldC(L43M-L58M) (Streptomyces coelicolor) (UniProt A0A0M7QSG5); assay: fluorescence polarization; details: FP: 25 mM Tris pH 7.5, 150 mM NaCl, 1 nM F-DNA, 25 C; footprinting: 10 mM Tris HCl pH 7.8, 150 mM NaCl, 2 mM DTT, 1 ug poly(dI-dC), 10% glycerol (none for …)
[7] = molecular target: Tag-free BldC (Streptomyces coelicolor) (UniProt A0A0M7QSG5); assay: fluorescence polarization; details: FP: 25 mM Tris pH 7.5, 150 mM NaCl, 1 nM F-DNA, 25 C; footprinting: 10 mM Tris HCl pH 7.8, 150 mM NaCl, 2 mM DTT, 1 ug poly(dI-dC), 10% glycerol (none for …)
[8] = stoichiometry 4:1, WT BldC, tag status not stated

Q: With “ATTCGGACAATTCGGACAATTCGGACAATTCGGACA (double strand) [36mer opt]” as the sequence, how does the Kd [1, 8] read?
A: 0.02 µM

Q: What does the source list for “CGAGAGGATCATGTGAGTTCTCCTGGTTCACGGGGACAGTCACCATGAGTACTTCCAGGCTCACAGCATGTATCCATACGATAAAAGGTGCAAATGGGGGAAATTCGACCGAATTACCTCAGGTGGCGGAGCGCTCCTTGGGCCGCTCGGGTGTGCCGCGAGCCAGTACCCTGGCGGTTCAC (double strand) [smeA-sffA promoter PCR probe]”?
A: binding [2]: binds; binding [3]: binds; binding [4]: binds

Q: With “GAGAACGGACACCAGGCCTCCTGGGGTGCGGGGACGGGGCCGGCTCATGGGGTTTAAGCCGGGACGAACCGTGCTTTCAAGGTCACAGTCGTCTTCGGCACCGAACGCGTCCGCCTTTAGAGAATGATCACGATCTGGTGAGTAACAATCCGAGCAATTCGGACACACTGTCGATCATTCGAAGATCGAACGGTTCCGCACTTTGTCGATACGAGGCCGAAAGTGGCCGTGTCGACAAAGTGACGGAACCTCCTCCGGACGTGCGGACCCCCTGCCCGGAACGATGAACGACGGCTGG (double strand) [whiI promoter PCR probe]” as the sequence, how does the binding [3] read?
A: binds

Q: How did the Kd [1, 8] turn out when “TAATTCGGTCGAATTTCCCCCATTTGCACCTTTTATCGTA (double strand) [smeA-ssfA site]” was run?
A: 0.06 µM

Q: Which Kd [1] does the source give for “TTCAATTCGCACAATTCGCACA / AATGTGCGAATTGTGCGAATTG [whiI opt bp 8 and 17 to C]” here?
A: 0.115 µM

Q: With “TTCAATTCGGACAATTCGGACA / AATGTCCGAATTGTCCGAATTG [whiI opt 22mer (FP)]” as the sequence, how does the Kd [1] read?
A: 0.0182 µM

Q: And the Kd ([1]; stoichiometry 2:1 (Fig. 5a))?
A: 0.02 µM

Q: What about the Kd [5] of the same sequence?
A: 0.14 µM

Q: What about the Kd [6] of the same sequence?
A: 0.0196 µM

Q: And the Kd [7]?
A: 0.0165 µM

Q: Which Kd [1] does the source give for “TTCAATTCGTACAATTCGTACA / AATGTACGAATTGTACGAATTG [whiI opt bp 8 and 17 to T]” here?
A: 0.05 µM
